Assays:
purified protein [1] = substrate: CC(N)CC(=O)O; test: purified protein; format: biochemical, Cupriavidus necator; details: co-substrate 5 mM pyruvate (assumed saturating), 2.5 mM NAD+, 5 uM PLP, sodium carbonate buffer pH 10, 30 C
purified protein [2] = substrate: NCCCCC(=O)O; test: purified protein; format: biochemical, Cupriavidus necator; details: co-substrate 5 mM pyruvate (assumed saturating), 2.5 mM NAD+, 5 uM PLP, sodium carbonate buffer pH 10, 30 C

B1: CnAptA (Cupriavidus necator H16) (protein)
chain: MDAAKTVIPDLDALWMPFTANRQYKAAPRLLASASGMYYTTHDGRQILDGCAGLWCVAAGHCRTEIAEAVARQAATLDYAPPFQMGHPLSFEAATKVAAIMPQGLDRIFFTNSGSESVDTALKIALAYHRARGEGQRTRFIGRERGYHGVGFGGMAVGGIGPNRKAFSANLMPGTDHLPATLNIAEAAFSKGQPQWGAHLADELERILALHDPSNVAAVIVEPLAGSAGVLVPPVGYLEKLREITSKHGILLIFDEVITAFGRLGAATAAERFKVTPDLITMAKAINNAAVPMGAVAVRREVHDTVVNSAAPGAIELLHGYTYSGHPLAAAAAIATLDLYQRENLFGRAAELAPVFEAAVHGVRGAPHVKDIRNYGLVAGIELEPRPGQPGARAYEAFLKCLELGVLVRYTGDILAFSPPLIISEAQIGELFDTVKKALQDIK
notes: E. coli ER2566 host; 47 kDa
For B1, the Km (purified protein [1]) was 1300 µM and the Km (purified protein [2]) was 930 µM.

Reference: paper PMC7427744, “Using singular perturbation theory to determine kinetic parameters in a non-standard coupled enzyme assay” (Journal of Mathematical Biology, 2020)
